Measured values as given in patent publication US11155602B2, “Polypeptides targeting HIV fusion” (priority 2015, dated 2021).

Tested on: NL-Rluc virus
Assay: Combinectin potency assay: antiviral EC50, NL-Rluc virus in MT-2 cells, luciferase readout
Format: cell-based, HIV-1
Details: Anti-N17 Adnectin, Table 3
In short: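 Peptides, serially diluted threefold over 11 points in triplicate, were exposed for 4–5 days to MT-2 cells preinfected 1 h with NL-Rluc virus (MOI 0.01). Replication read out as Renilla luciferase signal, with EC50 derived against untreated infected controls.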

Molecule	EC50 [µM]
222 (protein, Adnectin) MGHHHHHHGGSVSDVPRDLEVVAATPTSLLISWEYKVDHQRYYRITYGETGGNSPVQEFTVPSVLSTATISGLKPGVDYTITVYAVTYGDDSAPISINYRTEID	> 1
223 (protein, Adnectin) MGHHHHHHGGSVSDVPRDLEVVAATPTSLLISWEYKVDYRRYYRITYGETGGNSPVQEFTVPSVLSTATISGLKPGVDYTITVYAVTYGDDSAPISINYRTEID	> 1
224 (protein, Adnectin) MGHHHHHHGGSVSDVPRDLEVVAATPTSLLISWEYKVAYDRYYRITYGETGGNSPVQEFTVPSVLSTATISGLKPGVDYTITVYAVTYGDDSAPISINYRTEID	> 1
225 (protein, Adnectin) MGHHHHHHGGSVSDVPRDLEVVAATPTSLLISWEYKVTSYRYYRITYGETGGNSPVQEFTVPSVLSTATISGLKPGVDYTITVYAVTYGDDSAPISINYRTEID	> 1
226 (protein, Adnectin) MGHHHHHHGGSVSDVPRDLEVVAATPTSLLISWEYKVHPYRYYRIIHETGGNSPVQEFTVPSVLSTATISGLKPGVDYTITVYAVTYGDDSAPISINYRTEID	0.631
227 (protein, Adnectin) MGHHHHHHGGSVSDVPRDLEVVAATPTSLLISWEYKVHPYRYYRITYGETGGNSPVQEFTVPSVLSTATISGLKPGVDYTITVYAVTYGDDSAPISINYRKEAEL	> 1
228 (protein, Adnectin) MGHHHHHHGGSVSDVPRDLEVVAATPTSLLISWEYKVNHQRYYRITYGETGGNSPVQEFTVPSVLSTATISGLKPGVDYTITVYAVTYGDDSAPISINYRTEID	> 1
229 (protein, Adnectin) MGHHHHHHGGSVSDVPRDLEVVAATPTSLLISWEYKVDHRRYYRITYGETGGNSPVQEFTVPSVLSTATISGLKPGVDYTITVYAVTYGDDSAPISINYRTEID	> 1
230 (protein, Adnectin) MGVSDVPRDLEVVAATPTSLLISWEYKVHPYRYYRITYGETGGNSPVQEFTVPSVLSTATISGLKPGVDYTITVYAVTYGVDSDPISINYRTDDKPSQHHHHHH	0.017
125 (protein, Adnectin) MGHHHHHHGGVSDVPRDLEVVAATPTSLLISWEYKVHPYRYYRITYGETGGNSPVQEFTVPSVLSTATISGLKPGVDYTITVYAVTYGVQSDPISINYRTPGG	4.34
231 (protein, Adnectin) MGVSDVPRDLEVVAATPTSLLISWEYKVHPYRYYRITYGETGGNSPVQEFTVPSVLSTATISGLKPGVDYTITVYAVTYGVNSIPISINYRTEIDKPSQHHHHHH	0.01
232 (protein, Adnectin) MGVSDVPRDLEVVAATPTSLLISWEYKVNAYRYYRITYGETGGNSPVQEFTVPSVLSTATISGLKPGVDYTITVYAVTYGIESSPISINYRTEIDKPSQHHHHHH	0.047
233 (protein, Adnectin) MGVSDVPRDLEVVAATPTSLLISWEYKVHPYRYYRITYGETGGNSPVQEFTVPSVLSTATISGLKPGVDYTITVYAVTDGVQSSPISINYRTEIDKPSQHHHHHH	0.055
234 (protein, Adnectin) MGVSDVPRDLEVVAATPTSLLISWEYKVNAYRYYRITYGETGGNSPVQEFTVPSVLSTATISGLKPGVDYTITVYAVTYGIDSSPISINYRTEIDKPSQHHHHHH	0.02
235 (protein, Adnectin) MGVSDVPRDLEVVAATPTSLLISWEYKVHYDRYYRITYGETGGNSPVQEFTVPSVLSTATISGLKPGVDYTITVYAVTNGVLSSPISINYRTEIDKPSQHHHHHH	0.029
236 (protein, Adnectin) MGVSDVPRDLEVVAATPTSLLISWEYKVNPWRYYRITYGETGGNSPVQEFTVPSVLSTATISGLKPGVDYTITVYAVTRGVDSAPISINYRTEIDKPSQHHHHHH	0.085
238 (protein, Adnectin) MGVSDVPRDLEVVAATPTSLLISWEYKVNPWRYYRITYGETGGNSPVQEFTVPSVLSTATISGLKPGVDYTITVYAVTYGIQSPPISINYRTEIDKPSQHHHHHH	0.011
239 (protein, Adnectin) MGVSDVPRDLEVVAATPTSLLISWQYKVHPYRWYRITYGETGGNSPVQEFTVPSVLSTATISGLKPGVDYTITVYAVTYGVNSIPISINYRTEIDKPSQHHHHHH	0.004

Molecule	EC50 [µM]
240 (protein, Adnectin) MGVSDVPRDLEVVAATPTSLLISWEYKVSPYRYYRITYGETGGNSPVQEFTVPSVLSTATISGLKPGVDYTITVYAVTYGVNSIPISINYRTEIDKPSQHHHHHH	0.005
126 (protein, Adnectin) MGVSDVPRDLEVVAATPTSLLISWEYKVHPYRYYRITYGETGGNSPVQEFTVPSVLSTATISGLKPGVDYTITVYAVTYGIQSPPISINYRTEIDKPSQHHHHHH	0.008
241 (protein, Adnectin) MGVSDVPRDLEVVAATPTSLLISWEYKVNPWRYYRITYGETGGNSPVQEFTVPSVLSTATISGLKPGVDYTITVYAVTYGVNSLPISINYRTEIDKPSQHHHHHH	0.008
243 (protein, Adnectin) MGVSDVPRDLEVVAATPTSLLISWEYKVNPWRYYRITYGETGGNSPVQEFTVPSVLSTATISGLKPGVDYTITVYAVTYGVDSDPISINYRTEIDKPSQHHHHHH	0.048
244 (protein, Adnectin) MGVSDVPRDLEVVAATPTSLLISWEYKVDPYRYYRITYGETGGNSPVQEFTVPSVLSTATISGLKPGVDYTITVYAVTYGVDSDPISINYRTEIDKPSQHHHHHH	0.058
245 (protein, Adnectin) MGHHHHHHGGSVSDVPRDLEVVAATPTSLLISWKYQVHAYRYYRITYGETGGNSPVQEFTVPSVLSTATINGLKPGVDYTITVYAVTYGIISEPISINYRTEID	0.05
246 (protein, Adnectin) MGHHHHHHGGSVSDVPRDLEVVAATPTSLLISWEYKVNYNRYYRITYGETGGNSPVQEFTVPSVLSTATISGLKPGVDYTITVYAVTEGVQSAPISINYRTEID	> 1
248 (protein, Adnectin) MGHHHHHHGGSVSDVPRDLEVVAATPTSLLISWEYKVHPYRYYRITYGETGGNTPVQEFRVPSVLSTATISGLKPGVDYTITVYAVTYADASAPISINYRTEID	> 1
249 (protein, Adnectin) MGHHHHHHGGSVSDVPRDLEVVAATPTSLLISWEYKVHPYRYYRITYGETGGNSPVQEFTVPSVLSSATLNGLKPGVDYTITVYAVTYGDDSAPISINYRTEID	0.083
250 (protein, Adnectin) MGHHHHHHGGSVSDVPRDLEVVAATPTSLLISWEYKVHPYRYYRITYGETGGNSPVQEFTVPSVLSSAKISGLKPGVDYTITVYAVTYGDDSAPISINYRTEID	0.218
127 (protein, Adnectin) MGHHHHHHGGVSDVPRDLEVVAATPTSLLISWQYKVHPYRYYRITYGETGGNSPVQEFTVPSVLSSAQISGLKPGVDYTITVYAVTYGIESSPISINYRTPGG	0.009
251 (protein, Adnectin) MGHHHHHHGGSVSDVPRDLEVVAATPTSLLISWEYKVHPYRYYRITYGETGGNSPVQEFNVPSVLSTATISGLKPGVDYTITVYAVTYGDDSAPISINYRTEID	0.186
252 (protein, Adnectin) MGHHHHHHGGSVSDVPRDLEVVAATPTSLLISWEYKVAHRRYYRITYGETGGNSPVQEFTVPSVLSTATISGLKPGVDYTITVYAVTYGDDSAPISINYRTEID	> 1
253 (protein, Adnectin) MGHHHHHHGGSVSDVPRDLEVVAATPTSLLISWEYKVDAYRYYRITYGETGGNSPVQEFTVPSVLSTATISGLKPGVDYTITVYAVTYGDDSAPISINYRTEID	> 1
254 (protein, Adnectin) MGHHHHHHGGSVSDVPRDLEVVAATPTSLLISWEYKVDSYRYYRITYGETGGNSPVQEFTVPSVLSTATISGLKPGVDYTITVYAVTYGDDSAPISINYRTEID	> 1
255 (protein, Adnectin) MGHHHHHHGGSVSDVPRDLEVVAATPTSLLISWEYKVHPYRYYRITYGETGGNSPVQEFTVPSVLSTATISGLKPGVDYTITVYAVTYGDDSAPISINYRTEID	0.136
256 (protein, Adnectin) MGHHHHHHGGSVSDVPRDLEVVAATPTSLLISWEYKVHPYRYYRITYGETGGNSPVQEFTVPSVLSTATISGLKPGVDYTITVYAVTYGDASAPISINYRTEID	0.17
